Kd data for 16 sequences are collected here from patent publication US5811533.

Read-outs that look alike come from different tables or passages of the source.

In one series the test system is PDGF. Briefly: filter. The settings on record: specificity.
The subject of series [1] is T1, VEGF165 (recombinant human vascular endothelial growth factor, 165 aa form) (Homo sapiens), P15692-4.
T1 sequence: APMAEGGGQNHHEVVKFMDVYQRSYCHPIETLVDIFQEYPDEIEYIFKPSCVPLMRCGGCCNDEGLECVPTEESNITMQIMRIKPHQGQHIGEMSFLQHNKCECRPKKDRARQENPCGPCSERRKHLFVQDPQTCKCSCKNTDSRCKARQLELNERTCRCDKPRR
In words: filter.

Setting [2] is: 2'-NH2 pyrimidines, random pool.

In general, Kd refers to the constant that tells how readily two partners part at equilibrium.

In the case of “GGAAGCUUGAUGGGUGACACACGUCAUGCCGAGCU [ligand 44t]”, the Kd with PDGF amounted to 600 nM.

In the case of “CTACCTACGATCTGACTAGCATCCTTCCGAATGGGGGAAATGGCGNCCCAGCTTACTCTCATGTAGTTCCT [ssDNA b89]”, the Kd in series [1] was determined as 2 nM.

On to “GGGAGACAAGAAUAACGCUCAANNNNNNNNNNNNNNNNNNNNNNNNNNNNNNUUCGACAGGAGGCUCACAACAGGC [Random RNA A (30N8)]”, for which the Kd in series [1] (setting [2]) was determined as 83 nM.

“CTACCTACGATCTGACTAGCACAAGGGGTCCTGNNGAATGGGGGAATACGCTAGCCGAAGCTTACTCTCATGTAGTTCCT [ssDNA b55]”: the Kd in series [1] was 15 nM.

In the case of “CTACCTACGATCTGACTAGCCCACTGCATAGAGAGTCGCAAGACACGGTGCTTTATTCNCCGCTTAGCTTACTCTCATGTAGTTCCT [ssDNA b62]”, the Kd in series [1] came to 2.9 nM.

Take “CTACCTACGATCTGACTAGCTGCNNGCGGGCGGTTCTCCGGATGGGACCATAAGGCTTTAGCTTAGCTTACTCTCATGTAGTTCCT [ssDNA b54]”: in series [1], the Kd is 2.5 nM.

Take “GGGAGCUCAGAAUAAACGCUCAANNNNNNNNNNNNNNNNNNNNNNNNNNNNNNUUCGACAUGAGGCCCGGAUCCGGC [random RNA pool (30N)]”: the Kd in series [1] (random pool) worked out at 200 nM.

Turning to “TGGACTAGAGGNCAGCAAACGATCCTTGGTTCGCGTCC [32t]”, in series [1], the Kd was found to be 17 nM.

As to “CTACCTACGATCTGACTAGCCCACTGCAGAGAGTCAACCTTACGANGCCAAGGTTGCGGTGCTTAGCTTACTCTCATGTAGTTCCT [ssDNA b97]”, in series [1], the Kd was above 1 nM.

As to “GGCCGGUAGUCGCAUGGCCCAUCGCGCCCGG [ligand 100t]”, the dissociation constant Kd with PDGF turned out to be 600 nM.

“ATCCGCCTGATTAGCGATACTGGTGGACTAGAGGNCAGCAAACGATCCTTGGTTCGCGTCCACTTGAGCAAAATCACCTGCAGGGG [ssDNA 32]”: the Kd in series [1] came out at 2 nM.

Consider “GGGAGGACGAUGCGGNNNNNNNNNNNNNNNNNNNNNNNNNNNNNNNNNNNNNNNNNNNNNNNNNNCAGACGACUCGCCCGA [Random RNA B (50N7)]”, for which, in series [1] (setting [2]), the Kd turned out to be 240 nM.

Turning to “ATCCGCCTGATTAGCGATACTGGTGTGAACCAGACCTACNGGAACGTTATCGCTTGTGACTTGAGCAAAATCACCTGCAGGGG [ssDNA 44]”, the Kd in series [1] was determined as 0.4 nM.

Turning to “CTACCTACGATCTGACTAGCCCACTGCATAGAGATACTGGATTCGACNNNCCAAAGTTTCGGTGCTTAGCTTACTCTCATGTAGTTCCT [ssDNA b96]”, in series [1], the Kd was 1.5 nM.

As for “ATCCGCCTGATTAGCGATACTNNNNNNNNNNNNNNNNNNNNNNNNNNNNNNNNNNNNNNNNACTTGAGCAAAATCACCTGCAGGGG [starting random ssDNA pool]”, the Kd in series [1] (random pool) worked out at 200 nM.

With “CTACCTACGATCTGACTAGCACGCAAGAGAGGTCNCCGAATGGCAGTCTCAGCCGCTAACAGCTTACTCTCATGTAGTTCCT [ssDNA b91]”, the Kd in series [1] (clone listed in families 1 and 2) stood at 3.9 nM.
